Target: T1, leukocyte function antigen-1 (LFA-1), composed of CD11a and CD18, on the surface of white blood cells (human, UniProt P20701 26-1170; P05107 23-769)
T1 construct: whole, on cells; also called CD11a/CD18; wild type form of the receptor
Test: flow cytometry, THP-1 cells mixed with LtxA-FITC for 30 min at 0 C

T1 sequence (P20701 26-1170, chain 1 of 2): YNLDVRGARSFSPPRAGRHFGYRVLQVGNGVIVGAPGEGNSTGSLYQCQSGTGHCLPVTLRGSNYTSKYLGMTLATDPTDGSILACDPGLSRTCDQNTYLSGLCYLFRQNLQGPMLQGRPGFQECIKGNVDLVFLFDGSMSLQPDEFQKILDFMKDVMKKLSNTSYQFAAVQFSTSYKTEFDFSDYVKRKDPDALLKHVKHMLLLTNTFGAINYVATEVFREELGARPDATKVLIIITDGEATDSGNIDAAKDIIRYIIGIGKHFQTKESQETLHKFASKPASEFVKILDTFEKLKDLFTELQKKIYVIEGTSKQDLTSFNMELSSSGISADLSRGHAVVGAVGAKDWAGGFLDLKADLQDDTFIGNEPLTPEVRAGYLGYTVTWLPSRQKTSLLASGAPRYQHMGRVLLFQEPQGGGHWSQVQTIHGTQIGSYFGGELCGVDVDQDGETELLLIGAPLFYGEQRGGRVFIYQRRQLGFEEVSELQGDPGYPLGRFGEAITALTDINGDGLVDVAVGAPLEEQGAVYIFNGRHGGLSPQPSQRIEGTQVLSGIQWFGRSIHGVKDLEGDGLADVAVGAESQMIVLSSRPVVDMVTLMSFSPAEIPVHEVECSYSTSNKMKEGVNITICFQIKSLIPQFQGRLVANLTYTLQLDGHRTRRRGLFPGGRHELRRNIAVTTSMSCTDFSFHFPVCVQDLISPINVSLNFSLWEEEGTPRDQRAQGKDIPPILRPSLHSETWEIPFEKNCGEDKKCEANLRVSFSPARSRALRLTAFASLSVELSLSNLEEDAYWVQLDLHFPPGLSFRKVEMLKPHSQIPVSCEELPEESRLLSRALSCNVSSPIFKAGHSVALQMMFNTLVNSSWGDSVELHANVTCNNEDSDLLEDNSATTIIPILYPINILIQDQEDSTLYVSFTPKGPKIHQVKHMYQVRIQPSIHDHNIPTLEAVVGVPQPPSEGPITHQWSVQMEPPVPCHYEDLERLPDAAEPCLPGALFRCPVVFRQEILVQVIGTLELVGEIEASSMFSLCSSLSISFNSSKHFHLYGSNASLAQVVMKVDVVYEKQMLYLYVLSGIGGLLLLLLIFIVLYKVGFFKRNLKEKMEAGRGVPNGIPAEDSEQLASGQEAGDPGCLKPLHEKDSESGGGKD
T1 sequence (P05107 23-769, chain 2 of 2): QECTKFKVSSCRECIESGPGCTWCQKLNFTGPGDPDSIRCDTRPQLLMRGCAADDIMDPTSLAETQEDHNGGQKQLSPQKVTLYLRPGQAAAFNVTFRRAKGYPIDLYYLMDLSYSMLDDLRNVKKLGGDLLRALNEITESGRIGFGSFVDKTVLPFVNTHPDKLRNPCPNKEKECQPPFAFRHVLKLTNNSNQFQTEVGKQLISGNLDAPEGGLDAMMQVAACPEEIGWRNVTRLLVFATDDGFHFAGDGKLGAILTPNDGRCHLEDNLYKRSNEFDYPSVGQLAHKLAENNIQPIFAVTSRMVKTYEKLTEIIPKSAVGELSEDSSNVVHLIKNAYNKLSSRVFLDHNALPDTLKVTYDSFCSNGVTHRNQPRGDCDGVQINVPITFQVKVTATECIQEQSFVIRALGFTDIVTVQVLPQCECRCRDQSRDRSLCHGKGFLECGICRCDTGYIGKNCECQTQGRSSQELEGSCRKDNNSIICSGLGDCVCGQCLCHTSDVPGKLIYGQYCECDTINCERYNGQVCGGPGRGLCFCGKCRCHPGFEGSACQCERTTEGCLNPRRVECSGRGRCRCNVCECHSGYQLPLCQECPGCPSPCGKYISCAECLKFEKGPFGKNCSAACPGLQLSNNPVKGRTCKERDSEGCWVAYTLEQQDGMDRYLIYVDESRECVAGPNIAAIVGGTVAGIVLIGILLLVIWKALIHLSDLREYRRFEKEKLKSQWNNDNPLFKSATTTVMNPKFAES

B1: LtxA covalently labeled with fluorescein isothiocyanate (LtxA-FITC) (other)
chain: MATTSLLNTKQQAAQFANSVADRAKENIDAAKEQLQKALDKLGKTGKKLTLYIKNYKKGNGLTALIKAAQKLGIEVYHEGKDGPALTNGILNTGKKLLGLTERGLTLFAPELDKWIQGNKHLSNSVGSTGNLTKAIDKVQSVLGTLQAFLNTAFSGMDLDALIKARQNGKNVTDVQLAKASLNLINELIGTISSITNNVDTFSKQLNKLGEALGQVKHFGSFGDKLKNLPKLGNLGKGLGALSGVLSAISAALLLANKDADTATKAAAAAELTNKVLGNIGKAITQYLIAQRAAAGLSTTGPVAGLIASVVSLAISPLSFLGIAKQFDRARMLEEYSKRFKKFGYNGDSLLGQFYKNTGIADAAITTINTVLSAIAAGVGAASAGSLVGAPIGLLVSAITSLISGILDASKQAVFEHIANQLADKIKAWENKYGKNYFENGYDARHSAFLEDSLKLFNELREKYKTENILSITQQGWDQRIGELAGITRNGDRIQSGKAYVDYLKKGEELAKHSDKFTKQILDPIKGNIDLSGIKGSTTLTFLNPLLTAGKEERKTRQSGKYEFITELKVKGRTDWKVKGVPNSNGVYDFSNLIQHAVTRDNKVLEARLIANLGAKDDYVFVGSGSTIVNAGDGYDVVDYSKGRTGALTIDGRNATKAGQYKVERDLSGTQVLQETVSKQETKRGKVTDLLEYRNYKLDYYYTNKGFKAHDELNSVEEIIGSTLRDKFYGSKFNDVFHGHDGDDLIYGYDGDDRLYGDNGNDEIHGGQGNDKLYGGAGNDRLFGEYGNNYLDGGEGDDHLEGGNGSDILRGGSGNDKLFGNQGDDLLDGGEGDDQLAGGEGNDIYVYRKEYGHHTITEHSGDKDKLSLANINLKDVSFERNGNDLLLKTNNRTAVTFKGWFSKPNSSAGLDEYQRKLLEYAPEKDRARLKRQFELQRGKVDKSLNNKVEEIIGKDGERITSQDIDNLFDKSGNKKTISPQELAGLIKNKGKSSSLMSSSRSSSMLTQKSGLSNDISRIISATSGFGSSGKALSASPLQTNNNFNSYANSLATTAA
modifications: covalently labeled with fluorescein isothiocyanate (FITC); sites not stated
notes: also called leukotoxin-FITC
  binding result: binds
